# Patent US20150344570A1 (published 2015)
# T1: FcγRIIb extracellular domain with C-terminal His tag (human, UniProt P31994 43-217)
# T1 construct: extracellular domain; soluble analyte in Biacore; also called FcgRIIb; not shown: His tag at the C terminus
# T1 sequence (looked up): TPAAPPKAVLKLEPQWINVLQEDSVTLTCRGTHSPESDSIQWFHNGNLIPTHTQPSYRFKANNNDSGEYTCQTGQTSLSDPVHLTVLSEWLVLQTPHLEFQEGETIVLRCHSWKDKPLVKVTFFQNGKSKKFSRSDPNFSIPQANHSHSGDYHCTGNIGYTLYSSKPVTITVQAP
# T2: FcγRIIb extracellular domain with C-terminal His tag (human, UniProt P31994 43-217)
# T2 construct: extracellular domain; expressed in FreeStyle293 cells; analyte in Biacore; also called FcgRIIb; 2b
# T2 sequence (looked up): T1 sequence (looked up)
# B1: GpH7-A5/GpH7-B3 variant A330_10E/GpL16-k0 (antibody, human IgG1, kappa)
# heavy 1: not shown
# heavy 2: not shown
# light: DIVMTQSPLSLPVTPGEPASISCQASESLVHSNRNTYLHWYLQKPGQSPQLLIYKVSNRFSGVPDRFSGSGSGTDFTLKISRVEAEDVGVYYCSQNTHVPPTFGQGTKVEIERTVAAPSVFIFPPSDEQLKSGTASVVCLLNNFYPREAKVQWKVDNALQSGNSQESVTEQDSKDSTYSLSSTLTLSKADYEKHKVYACEVTHQGLSSPVTKSFNRGEC
# notes: change in the GpH7-B3 H chain only; also called He Ab
# B2: GpH7-A5/GpH7-B3 variant A330_19Q/GpL16-k0 (antibody, human IgG1, kappa)
# heavy 1: not shown
# heavy 2: not shown
# light: B1 light
# notes: as for B1
# B3: GpH7-A5/GpH7-B3 variant E333_13S/GpL16-k0 (antibody, human IgG1, kappa)
# heavy 1: not shown
# heavy 2: not shown
# light: B1 light
# notes: as for B1
# B4: GpH7-A5/GpH7-B3 variant A330_03V/GpL16-k0 (antibody, human IgG1, kappa)
# heavy 1: not shown
# heavy 2: not shown
# light: B1 light
# notes: as for B1
# B5: GpH7-A5/GpH7-B3 variant A330_20W/GpL16-k0 (antibody, human IgG1, kappa)
# heavy 1: not shown
# heavy 2: not shown
# light: B1 light
# notes: as for B1
# B6: GpH7-A5/GpH7-B3 variant I332_12R/GpL16-k0 (antibody, human IgG1, kappa)
# heavy 1: not shown
# heavy 2: not shown
# light: B1 light
# notes: as for B1
# B7: GpH7-A5/GpH7-B3 variant E333_16H/GpL16-k0 (antibody, human IgG1, kappa)
# heavy 1: not shown
# heavy 2: not shown
# light: B1 light
# notes: as for B1
# B8: GpH7-A5/GpH7-B3 variant E333_08L/GpL16-k0 (antibody, human IgG1, kappa)
# heavy 1: not shown
# heavy 2: not shown
# light: B1 light
# notes: as for B1
# B9: GpH7-A5/GpH7-B3 variant E333_05P/GpL16-k0 (antibody, human IgG1, kappa)
# heavy 1: not shown
# heavy 2: not shown
# light: B1 light
# notes: as for B1
# B10: GpH7-A5/GpH7-B3 variant A330_08L/GpL16-k0 (antibody, human IgG1, kappa)
# heavy 1: not shown
# heavy 2: not shown
# light: B1 light
# notes: as for B1
# B11: GpH7-A5/GpH7-B3 variant A330_04F/GpL16-k0 (antibody, human IgG1, kappa)
# heavy 1: not shown
# heavy 2: not shown
# light: B1 light
# notes: as for B1
# B12: GpH7-A5/GpH7-B3 variant A330_09D/GpL16-k0 (antibody, human IgG1, kappa)
# heavy 1: not shown
# heavy 2: not shown
# light: B1 light
# notes: as for B1
# B13: GpH7-A5/GpH7-B3 variant E333_09D/GpL16-k0 (antibody, human IgG1, kappa)
# heavy 1: not shown
# heavy 2: not shown
# light: B1 light
# notes: as for B1
# B14: GpH7-A5/GpH7-B3 variant A330_11K/GpL16-k0 (antibody, human IgG1, kappa)
# heavy 1: not shown
# heavy 2: not shown
# light: B1 light
# notes: as for B1
# B15: GpH7-A5/GpH7-B3 variant A327_13S/GpL16-k0 (antibody, human IgG1, kappa)
# heavy 1: not shown
# heavy 2: not shown
# light: B1 light
# notes: as for B1
# B16: GpH7-A5/GpH7-B3 variant A330_18N/GpL16-k0 (antibody, human IgG1, kappa)
# heavy 1: not shown
# heavy 2: not shown
# light: B1 light
# notes: as for B1
# B17: GpH7-A5/GpH7-B3 variant A330_16H/GpL16-k0 (antibody, human IgG1, kappa)
# heavy 1: not shown
# heavy 2: not shown
# light: B1 light
# notes: as for B1
# B18: GpH7-A5/GpH7-B3 variant A330_14T/GpL16-k0 (antibody, human IgG1, kappa)
# heavy 1: not shown
# heavy 2: not shown
# light: B1 light
# notes: as for B1
# B19: GpH7-A5/GpH7-B3 variant E333_14T/GpL16-k0 (antibody, human IgG1, kappa)
# heavy 1: not shown
# heavy 2: not shown
# light: B1 light
# notes: as for B1
# B20: GpH7-A5/GpH7-B3 variant E333_11K/GpL16-k0 (antibody, human IgG1, kappa)
# heavy 1: not shown
# heavy 2: not shown
# light: B1 light
# notes: as for B1
# B21: GpH7-A5/GpH7-B3 variant A330_07I/GpL16-k0 (antibody, human IgG1, kappa)
# heavy 1: not shown
# heavy 2: not shown
# light: B1 light
# notes: as for B1
# B22: GpH7-A5/GpH7-B3 variant E333_01G/GpL16-k0 (antibody, human IgG1, kappa)
# heavy 1: not shown
# heavy 2: not shown
# light: B1 light
# notes: as for B1
# B23: GpH7-A5/GpH7-B3 variant E333_06M/GpL16-k0 (antibody, human IgG1, kappa)
# heavy 1: not shown
# heavy 2: not shown
# light: B1 light
# notes: as for B1
# B24: GpH7-A5/GpH7-B3 variant A327_03V/GpL16-k0 (antibody, human IgG1, kappa)
# heavy 1: not shown
# heavy 2: not shown
# light: B1 light
# notes: as for B1
# B25: GpH7-A5/GpH7-B3 variant E333_15Y/GpL16-k0 (antibody, human IgG1, kappa)
# heavy 1: not shown
# heavy 2: not shown
# light: B1 light
# notes: as for B1
# B26: GpH7-A5/GpH7-B3 variant I336_01G/GpL16-k0 (antibody, human IgG1, kappa)
# heavy 1: not shown
# heavy 2: not shown
# light: B1 light
# notes: as for B1
# B27: GpH7-A5/GpH7-B3 variant E333_03V/GpL16-k0 (antibody, human IgG1, kappa)
# heavy 1: not shown
# heavy 2: not shown
# light: B1 light
# notes: as for B1
# B28: GpH7-A5/GpH7-B3 variant E333_07I/GpL16-k0 (antibody, human IgG1, kappa)
# heavy 1: not shown
# heavy 2: not shown
# light: B1 light
# notes: as for B1
# B29: GpH7-A5/GpH7-B3 variant E333_04F/GpL16-k0 (antibody, human IgG1, kappa)
# heavy 1: not shown
# heavy 2: not shown
# light: B1 light
# notes: as for B1
# B30: GpH7-A5/GpH7-B3 variant A327_06M/GpL16-k0 (antibody, human IgG1, kappa)
# heavy 1: not shown
# heavy 2: not shown
# light: B1 light
# notes: as for B1
# B31: GpH7-A5/GpH7-B3 variant A330_06M/GpL16-k0 (antibody, human IgG1, kappa)
# heavy 1: not shown
# heavy 2: not shown
# light: B1 light
# notes: as for B1
# B32: GpH7-A5/GpH7-B3 variant E333_02A/GpL16-k0 (antibody, human IgG1, kappa)
# heavy 1: not shown
# heavy 2: not shown
# light: B1 light
# notes: as for B1
# B33: GpH7-A5/GpH7-B3 variant A330_15Y/GpL16-k0 (antibody, human IgG1, kappa)
# heavy 1: not shown
# heavy 2: not shown
# light: B1 light
# notes: as for B1
# B34: GpH7-A5/GpH7-B3 variant E333_12R/GpL16-k0 (antibody, human IgG1, kappa)
# heavy 1: not shown
# heavy 2: not shown
# light: B1 light
# notes: as for B1
# B35: GpH7-A5/GpH7-B3 variant Y300_14T/GpL16-k0 (antibody, human IgG1, kappa)
# heavy 1: not shown
# heavy 2: not shown
# light: B1 light
# notes: He Ab; IgG1, mutation in one H chain
# B36: GpH7-A5/GpH7-B3 variant Y300_20W/GpL16-k0 (antibody, human IgG1, kappa)
# heavy 1: not shown
# heavy 2: not shown
# light: B1 light
# notes: as for B35
# B37: GpH7-A5/GpH7-B3 variant Y300_16H/GpL16-k0 (antibody, human IgG1, kappa)
# heavy 1: not shown
# heavy 2: not shown
# light: B1 light
# notes: as for B35
# Molecular target: T3, FcγRIa extracellular domain with C-terminal His tag (human, UniProt P12314 16-292)
# T3 construct: extracellular domain; soluble analyte in Biacore; also called FcgRI; not shown: His tag at the C terminus
# Experiment: SPR, binding relative to GpH7-A5/GpH7-B3/GpL16-k0 = 100
# T3 sequence (P12314 16-292): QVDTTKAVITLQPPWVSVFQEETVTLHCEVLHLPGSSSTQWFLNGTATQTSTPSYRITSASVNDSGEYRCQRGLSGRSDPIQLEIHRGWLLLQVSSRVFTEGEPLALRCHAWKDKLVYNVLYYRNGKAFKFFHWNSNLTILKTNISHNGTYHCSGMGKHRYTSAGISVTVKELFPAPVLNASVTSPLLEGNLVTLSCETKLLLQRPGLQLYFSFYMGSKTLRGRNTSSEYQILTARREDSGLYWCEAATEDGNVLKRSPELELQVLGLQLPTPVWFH
row,He/Con_1a,Binder
1,107 % of control,B1
2,105 % of control,B2
3,103 % of control,B3
4,106 % of control,B4
5,108 % of control,B5
6,100 % of control,B6
7,101 % of control,B7
8,102 % of control,B8
9,102 % of control,B9
10,107 % of control,B10
11,106 % of control,B11
12,109 % of control,B12
13,104 % of control,B13
14,103 % of control,B14
15,102 % of control,B15
16,106 % of control,B16
17,106 % of control,B17

row,He/Con_1a,Binder
1,105 % of control,B18
2,102 % of control,B19
3,102 % of control,B20
4,105 % of control,B21
5,103 % of control,B22
6,102 % of control,B23
7,103 % of control,B24
8,101 % of control,B25
9,109 % of control,B26
10,105 % of control,B27
11,102 % of control,B28
12,102 % of control,B29
13,103 % of control,B30
14,105 % of control,B31
15,103 % of control,B32
16,105 % of control,B33
17,102 % of control,B34

# Molecular target: T1, FcγRIIb extracellular domain with …
# Experiment: as above
row,He/Con_2b,Binder
1,70.1 % of control,B1
2,90.8 % of control,B2
3,81.8 % of control,B3
4,52.4 % of control,B4
5,76.1 % of control,B5
6,48.9 % of control,B6
7,83.3 % of control,B7
8,95 % of control,B8
9,97.7 % of control,B9
10,70.5 % of control,B10
11,92.8 % of control,B11
12,55.6 % of control,B12
13,94.3 % of control,B13
14,95 % of control,B14
15,79.5 % of control,B15
16,63.7 % of control,B16
17,87.6 % of control,B17

row,He/Con_2b,Binder
1,77.9 % of control,B18
2,86.1 % of control,B19
3,80.6 % of control,B20
4,67.1 % of control,B21
5,81.4 % of control,B22
6,85.4 % of control,B23
7,94.7 % of control,B24
8,94.4 % of control,B25
9,90.1 % of control,B26
10,93.2 % of control,B27
11,96.2 % of control,B28
12,94.6 % of control,B29
13,59.5 % of control,B30
14,80.5 % of control,B31
15,83.8 % of control,B32
16,95 % of control,B33
17,80.4 % of control,B34

# Molecular target: T4, FcγRIa extracellular domain with C-terminal His tag (human, UniProt P12314 16-292)
# T4 construct: extracellular domain; expressed in FreeStyle293 cells; analyte in Biacore; also called FcgRI; 1a
# Experiment: SPR (Biacore), captured antibody, FcγR as analyte; relative binding
# T4 sequence (P12314 16-292): as above
row,He/Con_1a,Binder
1,112 % of HeCon Ab (GpH7-A5/GpH7-B3/GpL16-k0 = 100),B35
2,112 % of HeCon Ab (GpH7-A5/GpH7-B3/GpL16-k0 = 100),B36
3,111 % of HeCon Ab (GpH7-A5/GpH7-B3/GpL16-k0 = 100),B37

# Molecular target: T2, FcγRIIb extracellular domain with …
# Experiment: as above
row,He/Con_2b,Binder
1,55.6 % of HeCon Ab (GpH7-A5/GpH7-B3/GpL16-k0 = 100),B35
2,84.1 % of HeCon Ab (GpH7-A5/GpH7-B3/GpL16-k0 = 100),B36
3,87 % of HeCon Ab (GpH7-A5/GpH7-B3/GpL16-k0 = 100),B37
